{"source": "patent CN111875704A", "about": "(BAI XIANHONG, dated 2020)", "key": {"[1]": {"target": "T1, 带有His6标签的EGFR胞外区蛋白 (EGFR extracellular domain with His6 tag) (UniProt P00533 25-645, limits assumed)", "T1 construct": "extracellular domain; also called EGFR保外区蛋白; 抗原; not shown: His6 tag", "assay": "monoclonal scFv-phage ELISA on coated antigen at 1 μg/ml, Anti-M13 HRP, OD450"}, "[2]": {"target": "T1, 带有His6标签的EGFR胞外区蛋白 (EGFR extracellular …)", "assay": "SPR, BIACORE X100 PLUS; ratio of KD against the reference mR3"}}, "data": [{"binder": "24H7 scFv (单克隆scFv噬菌体抗体) (scFv, The phage coat protein fusion is not described) scFv: QVQLQQPGAELVKPGASVKLSCKASGYTFTNYYIYWFKQRPGQGLEWIGGINPTSGGSNFNEKFKTKATLTVDESSTTAYMQLSSLTSEDSAVYYCTRQGLWFDSDGRGFDFWGQGTTLTVSSGGGGSGGGGSGGGGSDVLMTQIPLSLPVSLGDQASISCRSSQNIVHSNGNTYLDWYLQKPGQSPNLLIYKVSNRFSGVPDRFRGSGSGTDFTLKISRVEAEDLGVYYCFQYSHVPWTFGGGTKLEIKRGQAGQHHHHHH", "values": [{"measurement": "binding result", "setting": "[1]", "value": "binds"}]}, {"binder": "24H7 全长抗体 (full-length anti-EGFR antibody, IgG1/kappa) (antibody, V domains shown, also called 全长24H7抗体) VH: QVQLQQPGAELVKPGASVKLSCKASGYTFTNYYIYWFKQRPGQGLEWIGGINPTSGGSNFNEKFKTKATLTVDESSTTAYMQLSSLTSEDSAVYYCTRQGLWFDSDGRGFDFWGQGTTLTVSS VL: DVLMTQIPLSLPVSLGDQASISCRSSQNIVHSNGNTYLDWYLQKPGQSPNLLIYKVSNRFSGVPDRFRGSGSGTDFTLKISRVEAEDLGVYYCFQYSHVPWTFGGGTKLEIKR", "values": [{"measurement": "fold improvement of affinity against mR3", "setting": "[2]", "value": "10 倍"}]}]}
